# Data reported in patent publication US20260078420A1.
# B1: Rhizobium tropici β-1,2-glucan phosphorylase (RtSOGP, B6), wild type, SEQ ID NO: 11 (Martinezella tropici) (protein)
# chain: MSSGTNRSFQTPRREELGLITLSNTAGLSASALPNGTLFSIDFADQQGGVMINQVLGSPVYGGIGRLYLRIGGAKPATAEIVGPKAAVQFGHGKSGFSWSGETAGVKHTISLRLHPNKTAWFWQVSLENSSNATLSADLVLVQDVGLGDRGFLMNSEAYASQYIDHHIADHSAFGPVIMVRQNLKQGGGRNPWLAQGCLEGAAAYATDAIQLLVPSKGNDGVMVPDFGTSLPSARRQHEVACPTIQSKPLALAAGAKATTTFFGLFIADHPAASSDADLAHLDGLPALQSELAAETISAGQPVRSLLQDAPLAESDDLDQAALDALYPRRMLEEHADGKLLSFFVPDGPHNRHIVLREKERLVARRHGAIVRSGQNMLLDDQTLAATCWMQGIFAAQLTIGNTSFHKLFSVSRDPYNLTRSSGLRILVDLGDGWRLLGVPAAFEMGLSDTRWIYRLPGRTIIVSAIASGDDPAMQWSVSVEGAACRFLVFGQIVLGERDYEAVANIAVDTAGKRISFQPQPSWLWDRYPKAGYHLVTSTPDAFEAIGGDELLYSDSTARNGPFIALKSHPTKALRFAVTGSMTDAQAAEALAARYTTGVESEEMLAPARRFWSHVTRGARIEGDGRDVAAQAVMLPWIAHDAIVHLSVPHGLEQYTGAAWGTRDVCQGPIEFLLAYEHDEEVRQILLTLFSEQYRDRGDWPQWFMLEPYANIRAGEAHGDIVVWPLKALCDYIEATGDIAFLAKTVPWRADDTMQLTSEHATISDHIEKLLDTVRSRFVPGTSLIRYGEGDWNDSLQPADPHLRDWMVSSWTVSLLYEQLVRYANILTLANRNDEAQSLQATAVAMRADFNRLLMRDGIVAGYGVFDPSHDGVELLLHPEDTRTGLHYSLIAMTQPMIGGLFAPEQRHAHMKIIRANLLFPDGVRLMEKPATYSGGPEKLFRRAESSSFFGREIGLMYVHAHLRYCEALALDDDAEAVWAALALANPIAVSGRVEHASLRQRNTYFSSSDAAFEDRYQASAEWTRVKAGDIAVDGGWRIYSSGPGLYTKSLIGNVFGFKRQFGQRIRKPLLPASIGACEVKLDFKA
# Substrate: OC[C@H]1O[C@@H](O[C@H]2C(O)O[C@H](CO)[C@@H](O)[C@@H]2O)[C@H](O)[C@@H](O)[C@@H]1O
# Test: purified protein, by the assay type
# Settings: other: sophorose substrate; Gawronski phosphate release assay; 37.0 °C
protein,measurement,value
B1,Km,70 µM
same,Vmax,24 µmol/min/mg
same,kcat,50 s⁻¹
same,kcat/Km,717000 M⁻¹ s⁻¹
